Assay results as given in patent publication US20120121688A1, “PREVENTATIVE OR THERAPEUTIC AGENT AND METHOD FOR IMMUNE DISEASE” (Rinken, priority 2006, published 2012).

B1: recCryj1/2 protein: His-tagged recombinant fusion protein of Cryj1 mature protein and Cryj2 mature protein, SEQ ID NO:9 (protein)
chain: MAHHHHHHSAALEVLFQGPSDNPIDSCWRGDSNWAQNRMKLADCAVGFGSSTMGGKGGDLYTVTNSDDDPVNPAPGTLRYGATRDRPLWIIFSGNMNIKLKMPMYIAGYKTFDGRGAQVYIGNGGPCVFIKRVSNVIIHGLHLYGCSTSVLGNVLINESFGVEPVHPQDGDALTLRTATNIWIDHNSFSNSSDGLVDVTLSSTGVTISNNLFFNHHKVMLLGHDDAYSDDKSMKVTVAFNQFGPNCGQRMPRARYGLVHVANNNYDPWTIYAIGGSSNPTILSEGNSFTAPNESYKKQVTIRIGCKTSSSCSNWVWQSTQDVFYNGAYFVSSGKYEGGNIYTKKEAFNVENGNATPQLTKNAGVLTCSLSKRCRKVEHSRHDAINIFNVEKYGAVGDGKHDCTEAFSTAWQAACKKPSAMLLVPGNKKFVVNNLFFNGPCQPHFTFKVDGIIAAYQNPASWKNNRIWLQFAKLTGFTLMGKGVIDGQGKQWWAGQCKWVNGREICNDRDRPTAIKFDFSTGLIIQGLKLMNSPEFHLVFGNCEGVKIIGISITAPRDSPNTDGIDIFASKNFHLQKNTIGTGDDCVAIGTGSSNIVIEDLICGPGHGISIGSLGRENSRAEVSYVHVNGAKFIDTQNGLRIKTWQGGSGMASHIIYENVEMINSENPILINQFYCTSASACQNQRSAVQIQDVTYKNIRGTSATAAAIQLKCSDSMPCKDIKLSDISLKLTSGKIASCLNDNANGYFSGHVIPACKNLSPS
modifications: His tag

How the values were obtained:
[1] = test system: B220+ cells (B cells); assay: Cytokine production by whole spleen cells co-cultured with B220+ cells (B cells) from spleen of administered mice (ELISA); type: cell-based, BDF1 mice; details: B220+ cells from mice given 2 μg α-GalCer/mouse i.p., added to whole spleen cells; FIG. 1
Protocol: Aqueous α-GalCer or αGC liposome (International Publication WO2005/120574) at 2 μg α-GalCer/mouse was intraperitoneally administered to BDF1 mice, and after 24 hours, spleen was removed. The spleen was homogenized with a slide glass to prepare a cell suspension. Subsequently, anti-CD11c antibody magnetic beads (Miltenyi) were added thereto and CD11c^+ cells (DC) were prepared using a magnet. B220^+ cells (B cells) were prepared using anti-B220 mAb magnetic beads (Miltenyi) from the remaining cells which had not been bound to the magnet. Then, 2.5×10^5 whole spleen cells from the normal BDF1 mouse and 1×10^5 DC or 3×10^5 B cells derived from the spleen in the BDF1 mouse administered with aqueous α-GalCer or αGC liposome, suspended in 200 μL of culture medium were added in one well in a 96-well U bottom culture plate, and cultured in an incubator containing 5% CO2 at 37° C. Levels of cytokines, IFN-γ, IL-4 and IL-10 in culture supernatants after 24, 48 and 72 hours were measured by ELISA (FIG. 1).

[2] = test system: natural type Cryj1-specific and recCryj1/2-specific antibody titers; assay: In vivo antibody production by immunization with recCryj1/2 protein or natural type Cryj1; design: species or system BALB/c×DBA/2F1 (BDF1) mice
Protocol: BALB/c×DBA/2F1 (BDF1) mice (female, 8 weeks of age, five mice in one group, Charles River) were intraperitoneally immunized with 10 μg of purified Cryj1 (natural type Cryj1, Hayashibara Biochemical Laboratories Inc.) derived from the cedar pollen, or 5 μg or 10 μg of the recCryj1/2 protein mixed with 2 mg of aluminium hydroxide gel adjuvant (RIKEN) at the start of the experiment (0day) and on the 14th day. The boost immunization with 1 μg of natural type Cryj1 or 5 μg or 10 μg of the recCryj1/2 protein was given to each mouse on the 41st day. Furthermore, on the 81st day, the boost immunization with 1 μg of natural type Cryj1 mixed with 2 mg of aluminium hydroxide gel was given to all mice. Blood samples were collected from orbital venous plexus on the 13th, 28th, 55th, 76th and 95th days, and levels of natural type Cryj1-specific antibody titers and recCryj1/2-specific IgE antibody titers were measured. […] The recCryj1/2-specific IgE antibody titers on the 76th day were increased in mice immunized with the recCryj1/2 fusion protein (FIG. 8). Meanwhile, on the 28th and 55th day, natural type Cryj1-specific IgG1 and IgG2a antibody titers were increased in both mice immunized with natural type Cryj1 and recCryj1/2 (FIG. 9).

[3] = test system: natural type Cryj1-specific IgE antibody; assay: Inhibitory capacity of recCryj1/2 protein for in vivo IgE antibody production; design: species or system BDF1 mice; details: FIG. 10
Protocol: BDF1 mice (female, 8 weeks of age, Charles River) were intraperitoneally immunized with 5 μg of purified Cryj1 (natural type Cryj1, Hayashibara Biochemical Laboratories Inc.) derived from the cedar pollen mixed with 2 mg of aluminium hydroxide gel adjuvant (RIKEN) at the start of the experiment (0day) and on the 14th day. On the 50th day, the boost immunization with 1 μg of natural type Cryj1 was given. Meanwhile, the blood samples were collected from the orbital venous plexus on the 14th, 29th and 57th days, and the levels of the natural type Cryj1-specific IgE antibody in serum were measured. Subsequently, on the 99th day, the levels of the natural type Cryj1-specific IgE antibody were measured in all mice, and the mice were divided into three group (5 mice in one group) so that average values of antibody titers were equal among the groups. On the 106th, 113th and 120th days, the recCryj1/2 protein (0.2 μg), the recCryj1/2 protein (2 μg), or saline was administered three times, and further the boost immunization with 1 μg of natural type Cryj1 was given on the 133rd day. The blood samples were collected from the orbital venous plexus on the 140th and 160th days, and the levels of the natural type Cryj1-specific IgE antibody in serum were measured.

| Molecule | IFN-γ production [1] | IL-4 production [1] | IL-10 production [1] | natural type Cryj1-specific IgG1 antibody titers ([2]; 28th and 55th day, FIG. 9) | natural type Cryj1-specific IgG2a antibody titers ([2]; 28th and 55th day, FIG. 9) | recCryj1/2-specific IgE antibody titers ([2]; 76th day, FIG. 8) | increase of the natural type Cryj1-specific IgE antibody after immunization with adjuvant and natural type Cryj1 on the 81st day ([2]; 94th day, mice earlier immunized with 5 or 10 μg, FIG. 7) | natural type Cryj1-specific IgE antibody titers ([2]; days 28, 55 and 76, i.p. immunization with aluminium hydroxide gel days 0 and 14, boost day 41, FIG. 7) | natural type Cryj1-specific IgE antibody titers versus saline group ([3]; 127th day, 0.2 or 2 μg administered on days 106, 113, 120 to Cryj1-sensitized mice) | natural type Cryj1-specific IgE antibody titers after the boost immunization (133rd day) ([3]; 160th day, increased in saline group) |
| --- | --- | --- | --- | --- | --- | --- | --- | --- | --- | --- |
| CCCCCCCCCCCCCCCCCCCCCCCCCC(=O)N[C@@H](CO[C@H]1O[C@H](CO)[C@H](O)[C@H](O)[C@H]1O)[C@H](O)[C@H](O)CCCCCCCCCCCCCC [aqueous α-GalCer, α-galactosylceramide] | not detected | not detected | not detected | – | – | – | – | – | – | – |
| B1 | – | – | – | increased | increased | increased | scarcely observed | not increased at all | higher | decreased |
